B1: FABP7 peptide #22 (Aa 107-121 of SEQ ID NO: 6) (peptide)
peptide: REIKDGKMVMTLTFG
notes: FABP7 isoform 1 peptide; also called Pool 4 FABP7
B2: FABP7 peptide #23 (Aa 112-126 of SEQ ID NO: 6) (peptide)
peptide: GKMVMTLTFGDVVAV
notes: as for B1

Biological target: HLA DRB5 01:01
Assay: competitive HLA binding assay (legend: - No binding)
Settings: not given

Q: Does DETTADDRNCKSVVS (also called Pool 3 FABP7) [FABP7 peptide #15 (Aa 72-86 of SEQ ID NO: 1)] bind?
A: Result: no binding

Q: Does B1 bind?
A: Result: no binding

Q: Does SSLLLPFFLLPSFFN (also called Pool 6 FABP7) [FABP7 peptide #32 (Aa 141-155 of SEQ ID NO: 1)] bind?
A: Result: no binding

Q: Does HLLPSSSLLLPFFLL (also called Pool 6 FABP7) [FABP7 peptide #31 (Aa 136-150 of SEQ ID NO: 1)] bind?
A: Result: no binding

Q: Does LDGDKLVHIQKWDGK (also called Pool 3 FABP7) [FABP7 peptide #18 (Aa 87-101 of SEQ ID NO: 1)] bind?
A: Result: no binding

Q: Does KWDGKETNFVREIKD (also called Pool 4 FABP7) [FABP7 peptide #20 (Aa 97-111 of SEQ ID NO: 1)] bind?
A: Result: no binding

Q: Does MVSNDNSPFFLVFFS (also called Pool 5 FABP7) [FABP7 peptide #27 (Aa 116-130 of SEQ ID NO: 1)] bind?
A: Result: no binding

Q: Does AVITGACDKDSQCGG (also called Pool 1 PROK2) [PROK2 peptide #1 (Aa 28-42 of SEQ ID NO: 2)] bind?
A: Result: no binding

Q: Does KALGVGFATRQVGNV (also called Pool 1 FABP7) [FABP7 peptide #5 (Aa 22-36 of SEQ ID NO: 1)] bind?
A: Result: no binding

Q: Does TNSQNFDEYMKALGV (also called Pool 1 FABP7) [FABP7 peptide #3 (Aa 12-26 of SEQ ID NO: 1)] bind?
A: Result: no binding

Q: Does DDRNCKSVVSLDGDK (also called Pool 3 FABP7) [FABP7 peptide #16 (Aa 77-91 of SEQ ID NO: 1)] bind?
A: Result: no binding

Q: Does B2 bind?
A: Result: no binding

Q: Does VREIKDGKMVMVSND (also called Pool 5 FABP7) [FABP7 peptide #25 (Aa 106-120 of SEQ ID NO: 1)] bind?
A: Result: no binding

Q: Does LVHIQKWDGKETNFV (also called Pool 4 FABP7) [FABP7 peptide #19 (Aa 92-106 of SEQ ID NO: 1)] bind?
A: Result: no binding

Q: Does KSVVSLDGDKLVHIQ (also called Pool 3 FABP7) [FABP7 peptide #17 (Aa 82-96 of SEQ ID NO: 1)] bind?
A: Result: no binding

Biological target: HLA DRB5 01:01 (Homo sapiens, UniProt P01903+Q30154)
Assay: Competitive binding assay of overlapping peptides to HLA
Settings: competitive binding to HLA DRB5 01:01, compared with reference H1N1 influenza peptide

Q: For “Aa 02-16-SEQ ID NO: 1 (VEAFCATWKLTNSQN; listed as Homo sapiens) [FABP7 #1]”, which Binding affinity is on record?
A: The Binding affinity was “+”.

Q: “Aa 07-21-SEQ ID NO: 1 (ATWKLTNSQNFDEYM; listed as Homo sapiens) [FABP7 #2]” was tested. Which Binding affinity did it give?
A: Its Binding affinity is “+”.

Q: “Aa 12-26-SEQ ID NO: 1 (TNSQNFDEYMKALGV; listed as Homo sapiens) [FABP7 #3]” was tested. Which Binding affinity did it give?
A: Its Binding affinity is “−”.

Q: Which Binding affinity does the source give for “Aa 17-31-SEQ ID NO: 1 (FDEYMKALGVGFATR; listed as Homo sapiens) [FABP7 #4]” here?
A: The Binding affinity was “++”.

Q: For “Aa 22-36-SEQ ID NO: 1 (KALGVGFATRQVGNV; listed as Homo sapiens) [FABP7 #5]”, which Binding affinity is on record?
A: Its Binding affinity is “−”.

Q: Which Binding affinity does the source give for “Aa 27-41-SEQ ID NO: 1 (GFATRQVGNVTKPTV; listed as Homo sapiens) [FABP7 #6]” here?
A: Its Binding affinity is “+”.

Q: How did the Binding affinity turn out when “Aa 28-42-SEQ ID NO: 2 (AVITGACDKDSQCGG; listed as Homo sapiens) [PROK2 #1]” was run?
A: Its Binding affinity is “−”.

Q: With “Aa 32-46-SEQ ID NO: 1 (QVGNVTKPTVIISQE; listed as Homo sapiens) [FABP7 #7]” as the molecule, how does the Binding affinity read?
A: The Binding affinity was “−”.

Q: How did the Binding affinity turn out when “Aa 33-47-SEQ ID NO: 2 (ACDKDSQCGGGMCCA; listed as Homo sapiens) [PROK2 #2]” was run?
A: The Binding affinity was “−”.

Q: “Aa 37-51-SEQ ID NO: 1 (TKPTVIISQEGDKVV; listed as Homo sapiens) [FABP7 #8]” was tested. Which Binding affinity did it give?
A: Its Binding affinity is “−”.

Q: “Aa 38-52-SEQ ID NO: 2 (SQCGGGMCCAVSIWV; listed as Homo sapiens) [PROK2 #3]” was tested. Which Binding affinity did it give?
A: The Binding affinity was “−”.

Q: “Aa 42-56-SEQ ID NO: 1 (IISQEGDKVVIRTLS; listed as Homo sapiens) [FABP7 #9]” was tested. Which Binding affinity did it give?
A: Its Binding affinity is “−”.

Q: Which Binding affinity does the source give for “Aa 43-57-SEQ ID NO: 2 (GMCCAVSIWVKSIRI; listed as Homo sapiens) [PROK2 #4]” here?
A: The Binding affinity was “+”.

Q: For “Aa 47-61-SEQ ID NO: 1 (GDKVVIRTLSTFKNT; listed as Homo sapiens) [FABP7 #10]”, which Binding affinity is on record?
A: The Binding affinity was “+”.

Q: For “Aa 48-62-SEQ ID NO: 2 (VSIWVKSIRICTPMG; listed as Homo sapiens) [PROK2 #5]”, which Binding affinity is on record?
A: Its Binding affinity is “+”.

Q: “Aa 52-66-SEQ ID NO: 1 (IRTLSTFKNTEISFQ; listed as Homo sapiens) [FABP7 #11]” was tested. Which Binding affinity did it give?
A: Its Binding affinity is “−”.

Q: Which Binding affinity does the source give for “Aa 53-67-SEQ ID NO: 2 (KSIRICTPMGKLGDS; listed as Homo sapiens) [PROK2 #6]” here?
A: Its Binding affinity is “+++”.

Q: For “Aa 57-71-SEQ ID NO: 1 (TFKNTEISFQLGEEF; listed as Homo sapiens) [FABP7 #12]”, which Binding affinity is on record?
A: Its Binding affinity is “−”.

Q: Which Binding affinity does the source give for “Aa 58-72-SEQ ID NO: 2 (CTPMGKLGDSCHPLT; listed as Homo sapiens) [PROK2 #7]” here?
A: The Binding affinity was “−”.

Q: Which Binding affinity does the source give for “Aa 59-69 + 96-99-SEQ ID NO: 2 [PROK2 #15]” here?
A: Its Binding affinity is “−”.

Q: Which Binding affinity does the source give for “Aa 62-76-SEQ ID NO: 1 (EISFQLGEEFDETTA; listed as Homo sapiens) [FABP7 #13]” here?
A: The Binding affinity was “−”.

Q: For “Aa 63-77-SEQ ID NO: 2 (KLGDSCHPLTRKNNF; listed as Homo sapiens) [PROK2 #8]”, which Binding affinity is on record?
A: Its Binding affinity is “−”.

Q: Which Binding affinity does the source give for “Aa 64-69 + 96-104-SEQ ID NO: 2 [PROK2 #16]” here?
A: Its Binding affinity is “+”.

Q: For “Aa 67-81-SEQ ID NO: 1 (LGEEFDETTADDRNC; listed as Homo sapiens) [FABP7 #14]”, which Binding affinity is on record?
A: The Binding affinity was “−”.

Q: Which Binding affinity does the source give for “Aa 68-82-SEQ ID NO: 2 (CHPLTRKNNFGNGRQ; listed as Homo sapiens) [PROK2 #9]” here?
A: The Binding affinity was “+”.

Q: Aa 69 + 96-109-SEQ ID NO: 2 [PROK2 #17] was tested. Which Binding affinity did it give?
A: Its Binding affinity is “−”.

Q: How did the Binding affinity turn out when “Aa 72-86-SEQ ID NO: 1 (DETTADDRNCKSVVS; listed as Homo sapiens) [FABP7 #15]” was run?
A: Its Binding affinity is “−”.

Q: “Aa 73-87-SEQ ID NO: 2 (RKNNFGNGRQERRKR; listed as Homo sapiens) [PROK2 #10]” was tested. Which Binding affinity did it give?
A: Its Binding affinity is “+”.

Q: How did the Binding affinity turn out when “Aa 77-91-SEQ ID NO: 1 (DDRNCKSVVSLDGDK; listed as Homo sapiens) [FABP7 #16]” was run?
A: The Binding affinity was “−”.

Q: How did the Binding affinity turn out when “Aa 78-92-SEQ ID NO: 2 (GNGRQERRKRKRSKR; listed as Homo sapiens) [PROK2 #11]” was run?
A: The Binding affinity was “−”.

Q: For “Aa 82-96-SEQ ID NO: 1 (KSVVSLDGDKLVHIQ; listed as Homo sapiens) [FABP7 #17]”, which Binding affinity is on record?
A: The Binding affinity was “−”.

Q: With “Aa 83-97-SEQ ID NO: 2 (ERRKRKRSKRKKEVP; listed as Homo sapiens) [PROK2 #12]” as the molecule, how does the Binding affinity read?
A: The Binding affinity was “−”.

Q: For “Aa 87-101-SEQ ID NO: 1 (LDGDKLVHIQKWDGK; listed as Homo sapiens) [FABP7 #18]”, which Binding affinity is on record?
A: Its Binding affinity is “−”.

Q: With “Aa 88-102-SEQ ID NO: 2 (KRSKRKKEVPFFGRR; listed as Homo sapiens) [PROK2 #13]” as the molecule, how does the Binding affinity read?
A: The Binding affinity was “−”.

Q: Which Binding affinity does the source give for “Aa 92-106-SEQ ID NO: 1 (LVHIQKWDGKETNFV; listed as Homo sapiens) [FABP7 #19]” here?
A: Its Binding affinity is “−”.

Q: “Aa 93-107-SEQ ID NO: 2 (KKEVPFFGRRMHHTC; listed as Homo sapiens) [PROK2 #14]” was tested. Which Binding affinity did it give?
A: Its Binding affinity is “+”.

Q: How did the Binding affinity turn out when “Aa 97-111-SEQ ID NO: 1 (KWDGKETNFVREIKD; listed as Homo sapiens) [FABP7 #20]” was run?
A: The Binding affinity was “−”.

Q: “Aa 100-114-SEQ ID NO: 2 (GRRMHHTCPCLPGLA; listed as Homo sapiens) [PROK2 #18]” was tested. Which Binding affinity did it give?
A: Its Binding affinity is “−”.

Q: Which Binding affinity does the source give for “Aa 102-116-SEQ ID NO: 1 (ETNFVREIKDGKMVM; listed as Homo sapiens) [FABP7 #21]” here?
A: Its Binding affinity is “+”.

Q: “Aa 105-119-SEQ ID NO: 2 (HTCPCLPGLACLRTS; listed as Homo sapiens) [PROK2 #19]” was tested. Which Binding affinity did it give?
A: Its Binding affinity is “−”.

Q: Which Binding affinity does the source give for “Aa 106-120-SEQ ID NO: 1 (VREIKDGKMVMVSND; listed as Homo sapiens) [FABP7 #25]” here?
A: Its Binding affinity is “−”.

Q: How did the Binding affinity turn out when “Aa 107-121-SEQ ID NO: 6 (REIKDGKMVMTLTFG; listed as Homo sapiens) [FABP7 #22]” was run?
A: The Binding affinity was “−”.

Q: Which Binding affinity does the source give for “Aa 110-124-SEQ ID NO: 2 (LPGLACLRTSFNRFI; listed as Homo sapiens) [PROK2 #20]” here?
A: Its Binding affinity is “++”.

Q: For “Aa 111-125-SEQ ID NO: 1 (DGKMVMVSNDNSPFF; listed as Homo sapiens) [FABP7 #26]”, which Binding affinity is on record?
A: The Binding affinity was “+”.

Q: How did the Binding affinity turn out when “Aa 112-126-SEQ ID NO: 6 (GKMVMTLTFGDVVAV; listed as Homo sapiens) [FABP7 #23]” was run?
A: Its Binding affinity is “−”.

Q: For “Aa 115-129-SEQ ID NO: 2 (CLRTSFNRFICLAQK; listed as Homo sapiens) [PROK2 #21]”, which Binding affinity is on record?
A: Its Binding affinity is “+”.

Q: How did the Binding affinity turn out when “Aa 116-130-SEQ ID NO: 1 (MVSNDNSPFFLVFFS; listed as Homo sapiens) [FABP7 #27]” was run?
A: Its Binding affinity is “−”.

Q: “Aa 118-132-SEQ ID NO: 6 (LTFGDVVAVRHYEKA; listed as Homo sapiens) [FABP7 #24]” was tested. Which Binding affinity did it give?
A: The Binding affinity was “+”.

Q: Which Binding affinity does the source give for “Aa 121-135-SEQ ID NO: 1 (NSPFFLVFFSSPHTS; listed as Homo sapiens) [FABP7 #28]” here?
A: Its Binding affinity is “+++”.

Q: With “Aa 126-140-SEQ ID NO: 1 (LVFFSSPHTSHLLPS; listed as Homo sapiens) [FABP7 #29]” as the molecule, how does the Binding affinity read?
A: The Binding affinity was “+”.

Q: For “Aa 131-145-SEQ ID NO: 1 (SPHTSHLLPSSSLLL; listed as Homo sapiens) [FABP7 #30]”, which Binding affinity is on record?
A: Its Binding affinity is “+”.

Q: With “Aa 136-150-SEQ ID NO: 1 (HLLPSSSLLLPFFLL; listed as Homo sapiens) [FABP7 #31]” as the molecule, how does the Binding affinity read?
A: The Binding affinity was “−”.

Q: Which Binding affinity does the source give for “Aa 141-155-SEQ ID NO: 1 (SSLLLPFFLLPSFFN; listed as Homo sapiens) [FABP7 #32]” here?
A: The Binding affinity was “−”.

Q: For “Aa 146-160-SEQ ID NO: 1 (PFFLLPSFFNNTSLA; listed as Homo sapiens) [FABP7 #33]”, which Binding affinity is on record?
A: Its Binding affinity is “++”.

Q: How did the Binding affinity turn out when “Aa 152-166-SEQ ID NO: 1 (SFFNNTSLARFFNYM; listed as Homo sapiens) [FABP7 #34]” was run?
A: The Binding affinity was “+”.

From patent US20240158455A1, “MULTIPLE SCLEROSIS ASSOCIATED AUTOANTIGENS, AND USE THEREOF IN THERAPY AND DIAGNOSIS” (NEOGAP Therapeutics AB, priority 2017, published 2024)
